Assay results from patent publication US20030054515A1 (MYRIAD GENETICS, published 2003).

Key:
[1] = target: T1, Nuclear receptor coactivator 2 (NCOA2), amino acids 366-624, bait fused to the Gal4 DNA binding domain (Saccharomyces cerevisiae, UniProt P04386 1-147; Q15596 366-624); experiment: yeast two-hybrid screen with NCOA2 as bait
T1 construct: Bait expressed in yeast from vector pGBTQ as a C-terminal fusion to Gal4 DBD; Residues are counted on GenBank X97674; also called GRIP 1
Description: (§1) In these yeast cells, the bait is produced as a C-terminal fusion protein with the DNA binding domain of the transcription factor Gal4 (amino acids 1 to 147). A total human brain (person) cDNA library cloned into the yeast expression vector pACT2 was purchased from Clontech (human brain […] cDNA, cat. #HL4004AH), transformed into the yeast strain J692 (genotype of this strain: Mat a, ade2, his3, leu2, trp1, URA3::GAL1-lacZ LYS2::GAL1-HIS3 gal4del gal80del cyhR2), and selected for the ability to drive leucine synthesis. In these yeast cells, each cDNA is expressed as a fusion protein with the transcription activation domain of the transcription factor Gal4 (amino acids 768 to 881) and a 9 amino acid hemagglutinin epitope tag. J693 cells (Mat α type) expressing the bait were then mated with J692 cells (Mat a type) expressing proteins from the brain library. The resulting diploid yeast cells expressing proteins interacting with the bait protein were selected for the ability to synthesize tryptophan, leucine, histidine, and β-galactosidase. DNA was prepared from each clone, transformed by electroporation into E. coli strain KC8 (Clontech KC8 electrocompetent cells, cat. #C2023-1), and the cells were selected on ampicillin-containing plates in the absence of either tryptophane (selection for the bait plasmid) or leucine (selection for the brain library plasmid). […]

[2] = target: T1, Nuclear receptor coactivator 2 (NCOA2), …; experiment: yeast two-hybrid; Gal4 DBD bait, prey from human brain library (Gal4 AD)
Description: as §1, with “A” for “In these yeast cells, the bait is produced as a C-terminal fusion protein with the DNA binding domain of the transcription factor Gal4 (amino acids 1 to 147). A”, “plasmid). DNA for both plasmids was prepared and sequenced by di-deoxynucleotide chain termination method.” for “plasmid).”

[3] = target: T1, Nuclear receptor coactivator 2 (NCOA2), …; experiment: yeast two-hybrid; bait NCOA2 aa 366-624 (Gal4 DBD), prey from human brain library (Gal4 AD)
Description: as §1

B1: PN12361, amino acids 1-223, prey clone fused to the Gal4 activation domain (other, Saccharomyces cerevisiae, not shown: small tags and cut ends)
chain: ANFNQSGNIADSSLSFTFTNSSNGPNLITTQTNSQALSQPIASSNVHDNFMNNEITASKIDDGNNSKPLSPGWTDQTAYNAFGITTGMFNTTTMDDVYNYLFDDEDTPPNPKKEMDALVEDDICILNHEKAHKRDTVTPVSIYSGDESVASHFALVTAYEDIKKRLKDSEKENSLLKKRIRFLEEKLIARFEEETSSVGREQVNKAYHAYREVCIDRDNLKSKLDKMNKDNSESLKVLNEQLQSKEVELLQLRTEVETQQVMRNLNPPSSNWEVEKLSCDLKIHGLEQELELMRKECSDLKIELQKAKQTDPYQEDNLKSRDLQKLSISSDNMQHAY
notes: range 768-881; Prey from a human brain cDNA library in pACT2; also called novel AZ2-like protein
binding result [1]: binds

B2: Beta catenin (B-CAT), amino acids 487-668, prey clone fused to the Gal4 activation domain (other, Saccharomyces cerevisiae;human, UniProt P04386 768-881, looked up, not shown: small tags and cut ends)
chain: ANFNQSGNIADSSLSFTFTNSSNGPNLITTQTNSQALSQPIASSNVHDNFMNNEITASKIDDGNNSKPLSPGWTDQTAYNAFGITTGMFNTTTMDDVYNYLFDDEDTPPNPKKELHYGLPVVVKLLHPPSHWPLIKATVGLIRNLALCPANHAPLREQGAIPRLVQLLVRAHQDTQRRTSMGGTQQQFVEGVRMEEIVEGCTGALHILARDVHNRIVIRGLNTIPLFVQLLYSPIENIQRVAAGVLCELAQDKEAAEAIEAEGATAPLTELLHSRNEGVATYAAAVLFRMSEDKPQ
notes: Prey from a human brain cDNA library in pACT2; residues counted on GenBank Z19054
binding result [2]: binds

B3: KIAA0619, amino acids 589-828, prey clone fused to the Gal4 activation domain (other, Saccharomyces cerevisiae;human, UniProt P04386 768-881, looked up, not shown: small tags and cut ends)
chain: ANFNQSGNIADSSLSFTFTNSSNGPNLITTQTNSQALSQPIASSNVHDNFMNNEITASKIDDGNNSKPLSPGWTDQTAYNAFGITTGMFNTTTMDDVYNYLFDDEDTPPNPKKESKQIQQLESNNRDLQDKNCLLETAKLKLEKEFINLQSALESERRDRTHGSEIINDLQGRICGLEEDLKNGKILLAKVELEKRQLQERFTDLEKEKSNMEIDMTYQLKVIQQSLEQEEAEHKATKARLADKNKIYESIEEAKSEAMKEMEKKLLEERTLKQKVENLLLEAEKRCSLLDCDLKQSQQKINELLKQKDVLNEDVRNLTLKIEQETQKRCLTQNDLKMQTQQVNTLKMSEKQLK
notes: Prey from a human brain cDNA library in pACT2; residues counted on GenBank AB014519; also called ROCK2
binding result [2]: binds

B4: XE169, amino acids 1239-1439, prey clone fused to the Gal4 activation domain (other, Saccharomyces cerevisiae;human, UniProt P04386 768-881, looked up, not shown: small tags and cut ends)
chain: ANFNQSGNIADSSLSFTFTNSSNGPNLITTQTNSQALSQPIASSNVHDNFMNNEITASKIDDGNNSKPLSPGWTDQTAYNAFGITTGMFNTTTMDDVYNYLFDDEDTPPNPKKEDTKFLCPLCMRSRRPRLETILALLVALQRLPVRLPEGEALQCLTERAISWQGRARQALASEDVTALLGRLAELRQRLQAEPRPEEPPNYPAAPASDPLREGSGKDMPKVQGLLENGDSVTSPEKVAPEEGSGLELLSSLLPQLTGPVLELPEATRAPLEELMMEGDLLEVTLDENHSIWQLLQAGQPPDLERIRTLLE
notes: Prey from a human brain cDNA library in pACT2; also called SMCX
binding result [3]: binds
